Reference: the Human Domainome abundance scans (Beltran et al. 2025)

B1: Pituitary-specific positive transcription factor 1, residues 130 to 198; numbered along this chain, P28069 (parent)
chain: RELEKFANEFKVRRIKLGYTQTNVGEALAAVHGSEFSQTTICRFENLQLSFKNACKLKAILSKWLEEAE

Variants of: B1
Assay: abundance fitness (aPCA) (normalised: wild type 0, dead -1); higher = more abundant; growth selection in yeast, the domain comes from the species named
Details: Homo sapiens

Abundance fitness of substitutions, site by site:
R14: L -0.72 | P -0.781 | G -0.8 | D -0.725 | S -0.995 | N -0.897 | C -0.79 | Y -0.745 | T -0.878 | M -0.645 | Q -0.74 | V -0.712 | H -0.253 | E -0.952
R13: K -0.308 | W -0.733 | Q -0.193 | E -0.976 | A -0.179 | F -0.872 | D -0.803 | P -0.898 | V -0.734 | S -0.924 | L -0.913 | N -0.618 | G -0.69 | T -0.913
K11: W -0.911 | D -1.02 | R -0.021 | S -0.65 | C -0.795 | V -0.694 | E -0.786 | G -0.6 | Q -0.507 | L -0.973 | F -1.02 | I -0.458 | M -0.546
Y19: A -0.421 | C -0.562
N8: L 0.093 | G -0.336 | D -0.532 | P -0.783 | F -0.262 | R 0.188 | V -0.224 | S 0.034 | W -0.414 | M -0.027 | E -0.168 | Y -0.094 | I 0.024 | K 0.155 | T -0.04 | Q 0.12
I15: E -0.014 | Q 0.042 | R -0.083 | T -0.13 | G -0.404 | P -1.03 | D -0.89 | L -0.196 | N -0.546 | V -0.219 | K -0.054 | A -0.173 | S -0.272 | M 0.014 | H -0.393 | C -0.327 | Y -0.761
L17: T -0.941 | K -0.804 | I -0.709 | M -0.453 | Y -0.858 | S -0.738 | G -0.889 | H -0.497 | V -0.785 | R -0.803 | Q -0.821 | C -0.613 | W -0.638 | F -0.588 | A -0.401 | N -0.729
V12: L -0.16 | E 0.275 | F -0.318 | I -0.002 | D -0.175 | Q 0.16 | P -0.772 | C -0.183 | Y -0.295 | K -0.071 | M -0.045 | S 0.089 | A 0.173 | H 0.095 | R -0.101 | W -0.56
K16: S -0.365 | N -0.122 | R -0.027 | Y -0.64 | A -0.08 | G -0.559 | D -0.665 | T -0.809 | M -0.365 | C -0.121 | H -0.786 | F -0.909 | L -0.468 | V -0.812
F10: H -0.762 | C -0.923 | V -0.649 | G -1.05 | I -0.963 | L -0.731 | W -0.961 | M -0.621 | K -0.721 | Y -0.518 | S -0.544 | N -0.59 | T -0.915 | Q -0.434 | R -0.738 | A -0.803 | P -0.931
G18: Y -0.825 | S -0.838 | H -0.742 | F -0.681 | L -0.62 | R -0.84 | W -0.83 | P -0.608 | C -0.688 | D -0.556 | V -0.912 | I -0.665 | N -0.969
E9: M -0.11 | F -0.239 | A -0.156 | S -0.213 | D 0.031 | W -0.057 | C -0.714 | R -0.645 | L -0.246 | P -0.917 | Q -0.188 | V -0.65 | T -0.398 | Y -0.72 | K -0.323
